Source: paper PMC4756836 (Nucleic Acids Research, 2015)

Target: the molecule itself
Assay: crystal structure

B1: yeast mitochondrial threonyl-tRNA synthetase MST1 (enzyme, S. cerevisiae)
chain: QDLFMTDPLSPGSMFFLPNGAKIFNKLIEFMKLQQKFKFGFNEVVTPLIYKKTLWEKSGHWENYADDMFKVETTDEEKEEYGLKPMNCPGHCLIFGKKDRSYNELPLRFSDFSPLHRNEASGALSGLTRLRKFHQDDGHIFCTPSQVKSEIFNSLKLIDIVYNKIFPFVKGGSGAESNYFINFSTRPDHFIGDLKVWNHAEQVLKEILEESGKPWKLNPGDGAFYGPKLDIMVTDHLRKTHQVATIQLDFQLPERFDLKFKDQDNSYKRPIMIHRATFGSIERFMALLIDSNEGRWPFWLNPYQAVIIPVNTKNVQQLDMCTALQKKLRNELEADDMEPVPLNDWHFNVDLDIRNEPVGYRIKSAILKNYSYLIIVGDEEVQLQKYNIRERDNRKSFEKLTMSQIWEKFIELEKNYK
stoichiometry N: 2
